# Measured values as given in IntAct's records for PubMed 30026228.
# B1: Zinc fingers and homeoboxes protein 2 (Homo sapiens), Q9Y6X8 (parent)
# chain: MASKRKSTTPCMVRTSQVVEQDVPEEVDRAKEKGIGTPQPDVAKDSWAAELENSSKENEVIEVKSMGESQSKKLQGGYECKYCPYSTQNLNEFTEHVDMQHPNVILNPLYVCAECNFTTKKYDSLSDHNSKFHPGEANFKLKLIKRNNQTVLEQSIETTNHVVSITTSGPGTGDSDSGISVSKTPIMKPGKPKADAKKVPKKPEEITPENHVEGTARLVTDTAEILSRLGGVELLQDTLGHVMPSVQLPPNINLVPKVPVPLNTTKYNSALDTNATMINSFNKFPYPTQAELSWLTAASKHPEEHIRIWFATQRLKHGISWSPEEVEEARKKMFNGTIQSVPPTITVLPAQLAPTKVTQPILQTALPCQILGQTSLVLTQVTSGSTTVSCSPITLAVAGVTNHGQKRPLVTPQAAPEPKRPHIAQVPEPPPKVANPPLTPASDRKKTKEQIAHLKASFLQSQFPDDAEVYRLIEVTGLARSEIKKWFSDHRYRCQRGIVHITSESLAKDQLAIAASRHGRTYHAYPDFAPQKFKEKTQGQVKILEDSFLKSSFPTQAELDRLRVETKLSRREIDSWFSERRKLRDSMEQAVLDSMGSGKKGQDVGAPNGALSRLDQLSGAQLTSSLPSPSPAIAKSQEQVHLLRSTFARTQWPTPQEYDQLAAKTGLVRTEIVRWFKENRCLLKTGTVKWMEQYQHQPMADDHGYDAVARKATKPMAESPKNGGDVVPQYYKDPKKLCEEDLEKLVTRVKVGSEPAKDCLPAKPSEATSDRSEGSSRDGQGSDENEESSVVDYVEVTVGEEDAISDRSDSWSQAAAEGVSELAESDSDCVPAEAGQA
# Variants of: B1
# Conditions: with vhl_human VHL
row,Variant,effect of a mutation on the interaction
1,P427A,decreasing interaction strength
2,P427A;P440A;P464A,disrupting interaction strength
3,P440A,decreasing interaction strength
4,P464A,decreasing interaction strength
